From patent publication CN110760489A, “一种川芎咖啡酸-o-甲基转移酶的突变体及其用途” (Southwest Jiaotong University, priority 2019, dated 2020)
Where a chain is given by its changes, count along the chain named. Names and notes keep the numbering of the source.

Key:
[1] = substrate: COC(=O)/C=C/c1ccc(O)c(O)c1; assay: 动力学参数值测定 (kinetic parameters, double-reciprocal method), wild-type LcCOMT; format: biochemical, Ligusticum chuanxiong; settings: other: substrate 咖啡酸甲酯 0.0715-0.25 mM, S-adenosylmethionine 1 mM, pH 7.0, 37℃, HPLC, double-reciprocal plot, 37.0 °C
[2] = substrate: COC(=O)/C=C/c1ccc(O)c(O)c1; assay: 动力学参数值测定 (kinetic parameters, double-reciprocal method), LcCOMT-I318T mutant; format: biochemical, Ligusticum chuanxiong; settings: other: substrate 咖啡酸甲酯 0.0715-0.25 mM, S-adenosylmethionine 1 mM, pH 7.0, 37℃, HPLC, double-reciprocal plot, 37.0 °C

B1: Ligusticum chuanxiong caffeic acid O-methyltransferase LcCOMT, wild type [野生型LcCOMT; 川芎咖啡酸-O-甲基转移酶] (Conioselinum anthriscoides) (protein)
chain: MNTELIPPTFLEDEEEEACMFAMQLSSASVLPMVLKSAIELNLLESIAKAGPGVYVSPSHLAAGLPSSQPDTPVMLDRILRLLASYSVLNCQLRDLPQGRVERLYGLAPVCKFLTKNSDGVSMAPLLLMNQDKILMESWYHLKDAVLDGGIPFNKAYGMTAFEYHGKDPRFNKVFNQGMSNHSTITMKKILQTYDGFGGLKTVVDVGGGTGATLNMIISKYPNLKGINFDLPHVVEDAPSYPGVEHVGGDMFVSVPKGDAIFMKWICHDWSDAHCLTFLKNCYKALPKDGKVILAECILPEAPDSKLTTKNVIHIDVIMLAHNPGGKERTEKDFEALGKEAGFKSFNKACCAYNTWVIEYYK
- Km [1]: 26.4 µM
- Vmax [1]: 2.643*10^-8 M/S
- kcat [1]: 0.113 S-1

B2: Ligusticum chuanxiong caffeic acid O-methyltransferase LcCOMT variant LcCOMT-I318T (Ile318 to Thr), SEQ ID No.2 [LcCOMT-I318T突变体; 川芎咖啡酸-O-甲基转移酶] (Conioselinum … (protein)
chain: B1 chain with I318T
- Km [2]: 19.7 µM
